Assay: soluble on expression in E. coli; label from the status in PepcDB or PDB records
With “MNHMKKNILFDGLRSVARIGETAFVAARAGIKYATEKPSNAKLMRETFESLGSTYIKLGQFIASTPSLFPREYVEEFQGCLDQTPTLPFSYIQEVLAEEFEGRDLNQIFASIDETPLASASIAQVHAARLTTGEDVVIKVQKPGVETILYTDLNVVHWATKMLEKAIPKVKFASLSEIVEEIKIRMVREVDFIEEAQNLDDFVEYLKITNNQAATAPKVYHQFSTRRILTMERLYGVSLTDFDIVKKFAKDPSQVLITAMNTWFGSLMLCKSFHADLHAGNLMLLEDGRIGFIDFGIVGQLNPQVWTACLAFMDALQKTDYTAMAENMLKMGMTKTQIDTQVLAQDLERLFSGVLLADPQEILASKPSDLNDIMLDMVAVGERHGIKFPRDFALLFKQMLYFDRFMRVLAPYTDIYADQRLKMVQTIEPQSLLKH” the “soluble on expression in E. coli” value was “not soluble”. With “FGTFKSAITDYHGYEYKNHGYGLALTDTDLLGGSSGSLVFNQDKKISSIYSAATESDSVGYAQLLPVPKDV” the “soluble on expression in E. coli” value was “not soluble”. In the case of “MAAEEGAVIACHTKQEFDTHMANGKDTGKLVIIDFTASWCGPCRVIAPVFAEYAKKFPGAIFLKVDVDELKDVAEAYNVEAMPTFLFIKDGEKVDSVVGGRKDDIHTKIVALMGSAST”, the “soluble on expression in E. coli” value is reported as “soluble”. With “GGGGGGMADLFSTVQEKVAGKDVKIVFPEGLDERILEAVSKLAGNKVLNPIVIGNENEIQAKAKELNLTLGGVKIYDPHTYEGMEDLVQAFVERRKGKATEEQARKALLDENYFGTMLVYKGLADGLVSGAAHSTADTVRPALQIIKTKEGVKKTSGVFIMARGEEQYVFADCAINIAPDSQDLAEIAIESANTAKMFDIEPRVAMLSFSTKGSAKSDETEKVADAVKIAKEKAPELTLDGEFQFDAAFVPSVAEKKAPDSEIKGDANVFVFPSLEAGNIGYKIAQRLGNFEAVGPILQGLNMPVNDLSRGCNAEDVYNLALITAAQAL” the “soluble on expression in E. coli” value was “soluble”. With “MKKYQQLAEQLREQIASGIWQPGDRLPSLRDQVALSGMSFMTVSHAYQLLESQGYIIARPQSGYYVAPQAIKMPKAPVIPVTRDEAVDINTYIFDMLQASRDPSVVPFASAFPDPRLFPLQQLNRSLAQVSKTATAMSVIENLPPGNAELRQAIARRYALQGITISPDEIVITAGALEALNLSLQAVTEPGDWVIVENPCFYGALQALERLRLKALSVATDVKEGIDLQALELALQEYPVKACWLMTNSQNPLGFTLTPQKKAQLVALLNQYNVTLIEDDVYSELYFGREKPLPAKAWDRHDGVLHCSSFSKCLVPGFRIGWVAAGKHARKIQRLQLMSTLSTSSPMQLALVDYLSTRRYDAHLRRLRRQLAERKQRAWQALLRYLPAEVKIHHNDSGYFLWLELPEPLDAGELSLAALTHHISIAPGKMFSTGENWSRFFRFNTAWQWGEREEQAVKQLGKLIQERL” the “soluble on expression in E. coli” value was “not soluble”. For “YESIDLKAVLFDMDGVLFDSMPNHAESWHKIMKRFGFGLSREEAYMHEGRTGASTINIVSRRERGHDATEEEIKAIYQAKTEEFNKCPKAERMPGALEVLTKIKSEGLTPMVVTGSGQTSLLDRLNHNFPGIFQANLMVTAFDVKYGKPNPEPYLMALKKGGFKPNEALVIENAPLGVQAGVAAGIFTIAVNTGPLHDNVLLNEGANLLFHSMPDFNKNWETLQSALKQ”, the “soluble on expression in E. coli” value was “not soluble”. In the case of “MGSSHHHHHHSSGLVPRGSHMQQLPKAIIIGVRKGGTRALLEMLNLHPAVVKASQEIHFFDNDENYGKGIEWYRKKMPFSYPQQITIEKSPAYFITEEVPERIYKMNSSIKLLIIVREPTTRAISDYTQVLEGKERKNKTYYKFEKLAIDPNTCEVNTKYKAVRTSIYTKHLERWLKYFPIEQFHVVDGDRLITEPLPELQLVEKFLNLPPRISQYNLYFNATRGFYCLRFNEIFNKCLAGSKGRIHPEVDPSVITKLRKFFHPFNQKFYQITGRTLNWP”, the “soluble on expression in E. coli” value is reported as “soluble”. In the case of “MGFLWKTAKLGIKVGLVAGAVKLSIDNDIWSTNNVKGSELYQKLKKYILPGTVVFPEQLPTVEDVQLKAGGKWNSAVDSVFTTIENVPSSVNTVANRLINNK”, the “soluble on expression in E. coli” value is reported as “not soluble”. In the case of “MGSDKIHHHHHHACDDDEATDPYDINYVYIYKPSETNATLEYKGDGTFLKEIATEHILSPVRCTKPAPQDLTIQLAIDRSLVDAYNSEYGTSYVALQNAELENATLYIKQGEYISVDTLKVHYTNMEEFKNGSENYILPIAITSINGTGVSASESNSKIFLTFESTYKPNHVTLTSSKEYLLEYQYSQGFTNLSSEWKLDGILKSAWAADGDTKVTLAINPALVGTYNALHGTDYSLLTSASLKQSTIMIKQGKTTPEESVALSFSDDMASVQLGTNYVIPVTITNVDGVGADIGENKVIYIVYKTALVGFLSCVDKPVGSVINDHSGWSFTLNGQSSDLYDYVPDGSILDIDLGKQENIKTIALHFYEWFYSSESASIAISNDGEKYEDLGVASGFANKTSYILLLVAKQAQYIRVTFHGALYYSPYINTVGIYTETE”, the “soluble on expression in E. coli” value is reported as “not soluble”.

Reference: the DeepSol protein solubility set
